Publication PMC7884425

Key:
[1] = target: full-length human PARP1 (activated by DNA) (human), P09874; assay: ITC; HPF1 in the syringe; full-length PARP1 0.02 mM pre-incubated with 0.06 mM DNA hairpin at 4 °C for at least 60 min, in the cell; 25 °C; 20 mM Tris-pH 8.0, 150 mM NaCl, 1 mM TCEP, 1 mM MgCl2; settings: remark: other sources report otherwise
[2] = target: full-length human PARP1 (activated by DNA) (human), P09874; assay: ITC; in the presence of DNA; settings: natural protein; chains chain; remark: other sources report otherwise

full-length human PARP1 (activated by DNA) (human), P09874, sequence (P09874 whole entry): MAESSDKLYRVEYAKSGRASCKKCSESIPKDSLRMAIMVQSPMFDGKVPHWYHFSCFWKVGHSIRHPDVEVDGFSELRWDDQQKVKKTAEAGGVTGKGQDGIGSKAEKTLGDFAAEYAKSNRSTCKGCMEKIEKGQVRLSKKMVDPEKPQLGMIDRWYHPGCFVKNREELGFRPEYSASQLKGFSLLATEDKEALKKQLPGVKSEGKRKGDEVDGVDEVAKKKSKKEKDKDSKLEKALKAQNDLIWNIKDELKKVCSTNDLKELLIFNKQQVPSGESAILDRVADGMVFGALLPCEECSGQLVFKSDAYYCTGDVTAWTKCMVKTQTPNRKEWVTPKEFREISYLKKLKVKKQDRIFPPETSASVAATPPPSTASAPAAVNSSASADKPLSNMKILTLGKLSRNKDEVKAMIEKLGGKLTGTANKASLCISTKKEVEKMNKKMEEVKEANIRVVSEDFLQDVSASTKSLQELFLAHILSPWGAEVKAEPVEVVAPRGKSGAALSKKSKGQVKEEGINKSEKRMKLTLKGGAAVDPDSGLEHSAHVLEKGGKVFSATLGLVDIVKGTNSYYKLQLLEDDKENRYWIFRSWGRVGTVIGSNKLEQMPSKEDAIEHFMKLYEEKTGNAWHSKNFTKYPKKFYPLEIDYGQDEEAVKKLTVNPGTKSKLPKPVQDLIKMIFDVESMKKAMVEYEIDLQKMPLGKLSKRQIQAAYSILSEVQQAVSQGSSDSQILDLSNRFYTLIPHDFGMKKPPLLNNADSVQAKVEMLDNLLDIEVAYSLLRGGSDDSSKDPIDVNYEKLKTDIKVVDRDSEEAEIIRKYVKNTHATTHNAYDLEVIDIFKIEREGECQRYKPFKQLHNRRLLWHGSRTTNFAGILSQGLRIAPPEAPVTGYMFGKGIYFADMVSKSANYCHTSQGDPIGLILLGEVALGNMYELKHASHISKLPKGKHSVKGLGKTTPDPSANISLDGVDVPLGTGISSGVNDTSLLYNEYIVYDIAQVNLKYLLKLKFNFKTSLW

Kd [1]: 2800 nM | Ka [2]: 330000 M⁻¹
B1: human HPF1 (histone PARylation factor 1), wild-type, Q9NWY4 1-346 (natural protein)
chain: MVGGGGKRRPGGEGPQCEKTTDVKKSKFCEADVSSDLRKEVENHYKLSLPEDFYHFWKFCEELDPEKPSDSLSASLGLQLVGPYDILAGKHKTKKKSTGLNFNLHWRFYYDPPEFQTIIIGDNKTQYHMGYFRDSPDEFPVYVGINEAKKNCIIVPNGDNVFAAVKLFLTKKLREITDKKKINLLKNIDEKLTEAARELGYSLEQRTVKMKQRDKKVVTKTFHGAGLVVPVDKNDVGYRELPETDADLKRICKTIVEAASDEERLKAFAPIQEMMTFVQFANDECDYGMGLELGMDLFCYGSHYFHKVAGQLLPLAYNLLKRNLFAEIIEEHLANRSQENIDQLAA
